According to patent US12162924B2, “Method for the design of fibrillar collagen-mimetic peptide self-assemblies” (WISCONSIN ALUMNI RESEARCH FOUNDATION, priority 2016, dated 2024):
Values joined by “and” are separate entries in the source; they are usually repeats but may differ in a detail not shown here. Equal values may be shown once. Non-standard residues stand in square brackets, D forms with d. No end group written: not given here. Hyp = O=C(O)[C@@H]1C[C@@H](O)CN1; Orn = NCCC[C@H](N)C(=O)O

Columns and labels:
Format in all cases: physicochemical
[1] = CD thermal denaturation (melting temperature of triple-helical assemblies); settings: for Tm (° C.): Table 2, constructs that self-assemble
Experimental: All CD data were acquired with a 202SF or 420 CD spectrophotometer from Aviv Biomedical (Lakewood, N.J.) at the UW BIF. Samples were prepared at a concentration of 0.6 mg/mL (˜160 μM) in 10 mM sodium phosphate buffer, pH 7.0, both with and without NaCl (180 mM). CD spectra were recorded at 4° C. with a 1-nm band-pass in quartz cuvettes with a 0.1-cm pathlength, using an averaging time of 4 s. For thermal denaturation experiments the CD signal was monitored at 226 nm while the sample was heated at a rate of 12° C./h in 2- or 3-° C. steps. The melting transition is indicated by a minimum on the temperature derivative of the melting curve (∂[θ]/∂T), and values (±1° C.) of melting temperature (Tm) were determined assuming constant curvature in the immediate vicinity of the transition minimum.

[2] = Rheology of peptide hydrogels / hydrogel formation
Experimental: This solution is placed in an airtight container, heated to 65° C. in a large water bath and annealed down to room temperature, overnight. The resulting hydrogel is subjected to rheological analysis (FIG. 15a).
Rheology on peptide hydrogels was performed on a TA ARES rheometer at the Soft Materials Laboratory at the University of Wisconsin—Madison, using 8-mm stainless-steel parallel-plate geometry with a 1 mm gap size. Strain sweeps (0.01-200%) maintained a fixed frequency of 2 rad/s, while a fixed strain of 1% was applied for frequency sweeps (0.1-100 rad/s).

[3] = Vitreous ice cryo-TEM imaging; settings: 0.3 mg/mL, flash frozen in liquid ethane
Experimental: (§1) All imaging was performed with a Tecnai TF-30 TEM instrument (300 kV) from FEI (Hillsboro, Oreg.) at the UW Materials Science Center (MSC; msc.engr.wisc.edu). Samples were prepared on Quantifoil R1.2/1.3 holey-carbon mesh on copper grids. Sample preparation for dry TEM was carried out at 4° C. Samples were negative-stained using freshly prepared 2.0% w/w PTA solution adjusted to pH 6 with aqueous NaOH and filtered. The peptide solution was allowed to adhere to the carbon-mesh side of the grid for 1 min, at which point excess solution was blotted with filter paper, and the grid was allowed to dry for 5 min. Negative stain was applied for 10 min by inverting the grid on a drop of PTA solution. Excess stain was removed with filter paper, and the grid was allowed to dry overnight prior to imaging. For vitreous ice cryo-TEM imaging, a solution of OKD (0.3 mg/mL) was applied to a TEM grid, glow discharged for 0.5 min at 25 mA beforehand with a Pelco easiGlow unit from Ted Pella (Redding, Calif.). The grid was allowed to equilibrate at 5° C. at 95% humidity. A drop of peptide solution was added, and the grid was then blotted and immersed in liquid ethane on a Vitrobot from FEI. The grid was transferred from liquid ethane to liquid nitrogen manually, and was stored in liquid nitrogen until imaging. Acquisition was performed at −180° C. with low dose and long exposures.

[4] = Tapping-mode atomic force microscopy on mica; settings: annealed at 0.03 mg/mL, freshly cleaved mica
Experimental: Peptide samples were annealed at 0.03 mg/mL in 10 mM sodium phosphate buffer, pH 7.0, and applied onto freshly cleaved mica at 4° C. After 10 min, the solution of peptide was washed with cold water for 30 s, and excess water was removed with a filter paper. Samples were dried at 4° C. overnight prior to imaging. AFM images were collected in tapping mode with an Agilent 5500 SPM instrument using NCHV-A probes from Bruker (Billerica, Mass.). Data were analyzed with Gwyddion ver. 2.39 software (gwyddion.net).
Although the softness of the material led to artifacts and necessitated frequent use of fresh probes, the images clearly and consistently present the self-assembled OKD nanofibers.

[5] = Negative-stained (dry) TEM imaging of peptide assemblies; settings: for Feature dimensions (nm), nanofiber diameter by TEM: dried, negative-stained, mean±SD
Experimental: as §1

[6] = Evidence for symmetric self-assembly (AUC/CD/DLS/TEM/AFM/Rheology); settings: Table 3
From the text: These peptides follow the following criteria for symmetric triple-helical self-assembly: • o. Peptides should embody the uninterrupted Xaa-Yaa-Gly tripeptide repeats of collagens • Peptides should be constructed to allow the formation of a polyproline-II helix. For this, their sequence should have a Gly at every third position. In addition, Pro residues should be favored at Xaa positions and Pro or Hyp residues at Yaa positions. Resulting peptides are collagen-mimetic peptides (CMPs). • i. Repulsive interstrand interactions should be installed to prevent the formation of the blunt-ended homotrimeric state. • CMPs are prone to forming blunt-ended triple helices, in general. This state should be destabilized to enable CMPs to associate with sticky-ends. • ii. The number of tripeptide repeats, nT, that constitute the CMP cannot be evenly divisible by three. • Satisfaction of this criterion is essential to obtain identical strand-offsets in the assembled state. […] This offset is nT residues for a peptide with nT tripeptide repeats. […] Thus, it is necessary to introduce attractive interstrand interactions to CMP designs that stabilize triple-helix formation only when they associate with nT-residue offsets.

In the case of “PKGPKGPKGPOGPOGDOGDOGDOGPOGPOGPO (PKGPKGPKGP[Hyp]GP[Hyp]GD[Hyp]GD[Hyp]GD[Hyp]GP[Hyp]GP[Hyp]GP[Hyp]) [Peptide 3sb-KDO]”, the “Tm (° C.)” value [1] is reported as 13 °C.

For “PKGPKGPKGPOGPOGDOGDOGDOGPOGPOGPOG (PKGPKGPKGP[Hyp]GP[Hyp]GD[Hyp]GD[Hyp]GD[Hyp]GP[Hyp]GP[Hyp]GP[Hyp]G) [Peptide 3sbG-KDO]”, the “Tm (° C.)” value [1] was 26 °C.

With “POGPOGPCysGPKGPKGPKGPKGPOGPOGDOGDOGDOGDOGPOG (PXGPXGPCGPKGPKGPKGPKGPXGPXGDXGDXGDXGDXGPXG; hydroxyproline residues; MOD_RES (2)..(2) 4Hyp; MOD_RES (5)..(5) 4Hyp; MOD_RES (23)..(23) 4Hyp; MOD_RES (26)..(26) 4Hyp; MOD_RES (29)..(29) 4Hyp; MOD_RES (32)..(32) 4Hyp; MOD_RES (35)..(35) 4Hyp; MOD_RES (38)..(38) 4Hyp; MOD_RES (41)..(41) 4Hyp) [OKD2-C8]” the “Tm (° C.)” value [1] was 45 °C.

For “POGPOGPOGPKGPKGPKGPKGHcyOGPOGDOGDOGDOGDOGPOG (PXGPXGPXGPKGPKGPKGPKGXXGPXGDXGDXGDXGDXGPXG; homocysteine, hydroxyproline residues; MOD_RES (2)..(2) 4Hyp; MOD_RES (5)..(5) 4Hyp; MOD_RES (8)..(8) 4Hyp; MOD_RES (22)..(22) Homocysteine; MOD_RES (23)..(23) 4Hyp; MOD_RES (26)..(26) 4Hyp; MOD_RES (29)..(29) 4Hyp; MOD_RES (32)..(32) 4Hyp; MOD_RES (35)..(35) 4Hyp; MOD_RES (38)..(38) 4Hyp; MOD_RES (41)..(41) 4Hyp) [OKD2-h22]”, the “Tm (° C.)” value [1] was 50 °C.

For “POGPOGPOGPKGPKGPKGPOGPOGDOGDOGDO (P[Hyp]GP[Hyp]GP[Hyp]GPKGPKGPKGP[Hyp]GP[Hyp]GD[Hyp]GD[Hyp]GD[Hyp]) [Peptide 3sb-OKD]”, the “Tm (° C.)” value [1] was 20 °C.

In the case of “POGPOGPOGPKGPKGPKGPOGPOGDOGDOGDOG (P[Hyp]GP[Hyp]GP[Hyp]GPKGPKGPKGP[Hyp]GP[Hyp]GD[Hyp]GD[Hyp]GD[Hyp]G) [Peptide 3sbG-OKD]”, the “Tm (° C.)” value [1] is reported as 33 °C.

For “POGPOGPOGPOGPKGPKGPKGPKGPOGPOGDOGDOGDOGDO (P[Hyp]GP[Hyp]GP[Hyp]GP[Hyp]GPKGPKGPKGPKGP[Hyp]GP[Hyp]GD[Hyp]GD[Hyp]GD[Hyp]GD[Hyp]) [Peptide 4sb-OKD]”, the “Tm (° C.)” value [1] was 36 °C.

For “POGPOGPOGPOGPKGPKGPKGPKGPOGPOGDOGDOGDOGDOG (PXGPXGPXGPXGPKGPKGPKGPKGPXGPXGDXGDXGDXGDXG; hydroxyproline residues; MOD_RES (2)..(2) 4Hyp; MOD_RES (5)..(5) 4Hyp; MOD_RES (8)..(8) 4Hyp; MOD_RES (11)..(11) 4Hyp; MOD_RES (26)..(26) 4Hyp; MOD_RES (29)..(29) 4Hyp; MOD_RES (32)..(32) 4Hyp; MOD_RES (35)..(35) 4Hyp; MOD_RES (38)..(38) 4Hyp; MOD_RES (41)..(41) 4Hyp) [OKD]”, the hydrogel formation ([2]; 4sbG series peptides) was “form hydrogels”, the “G′ (storage modulus)” value ([2]; hydrogel at 1% concentration) was 0.5 kPa and the “G″ (loss modulus)” value ([2]; hydrogel at 1% concentration) was 0.05 kPa. For the same molecule, the “diameter of solvated nanofibers (cryo-TEM)” value [3] was 3.8±0.5 nm, the “nanofiber length (AFM)” value [4] was “up to 0.5 μm” and the “nanofiber thickness/diameter (AFM)” value [4] was 1.2±0.2 nm and 1.2 nm. The “length of triple-helical stretches” value ([5]; TEM) was at most 0.3 μm, the “Feature dimensions (nm), nanofiber diameter by TEM” value [5] was 2.3±0.4 nm and the “Tm (° C.) I = 20 mM” value ([1]; CD at 226 nm, 0.6 mg/mL, 10 mM sodium phosphate pH 7.0, low ionic strength I = 20 mM) was 49 °C. The “Tm (° C.) I = 200 mM” value ([1]; CD at 226 nm, 0.6 mg/mL, 10 mM sodium phosphate pH 7.0 with 180 mM NaCl, I = 200 mM) was 39 °C and the “Tm (° C.)” value [1] was 49 °C.

In the case of “POGPOGPOGPOrGPOrGPOrGPOGPOGDOGDOGDO (P[Hyp]GP[Hyp]GP[Hyp]GP[Orn]GP[Orn]GP[Orn]GP[Hyp]GP[Hyp]GD[Hyp]GD[Hyp]GD[Hyp]) [Peptide 3sb-OOrD]”, the “Evidence (constructs that do not reliably self-assemble)” value [6] is reported as “no structure”.

B1: POGPOGPO…cyOGPOGDOGDOGDOGDOGPOG / POGPOGPCysGPKGPKGPKGPKGPOGPOGDOGDOGDOGDOGPOG (peptide)
chain 1: PXGPXGPXGPKGPKGPKGPKGXXGPXGDXGDXGDXGDXGPXG
chain 2: PXGPXGPCGPKGPKGPKGPKGPXGPXGDXGDXGDXGDXGPXG
modifications: not fully specified; homocysteine-cysteine crosslinked heterodimer; MOD_RES (2)..(2) 4Hyp; MOD_RES (5)..(5) 4Hyp; MOD_RES (8)..(8) 4Hyp; MOD_RES (22)..(22) Homocysteine; MOD_RES (23)..(23) 4Hyp; MOD_RES (26)..(26) 4Hyp; MOD_RES (29)..(29) 4Hyp; MOD_RES (32)..(32) 4Hyp; MOD_RES (35)..(35) 4Hyp; MOD_RES (38)..(38) 4Hyp; MOD_RES (41)..(41) 4Hyp
In the case of B1, the “Feature dimensions (nm), nanofiber diameter by TEM” value [5] is reported as 2.4±0.4 nm and the “Tm (° C.)” value [1] is reported as 60 °C.
